Experimental findings from the domain aggregation screens of Martell et al. (2025) are described below.
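Note: 20 min heating vs room temperature control held 20 min.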

A short description of this data set: soluble fraction after stress (log2 fold change); higher = more stays soluble; pooled small domains, quantitative proteomics. The following applies: stress: 75 degC.
As to “HMGGGVSSSLAGNVFKVLLPAGSVVEQGQAVIVLEAMKMETEVNAPKSGSVSSVFVNEGDTVEVGDLLFAI”, the “soluble fraction (log2)” value was -0.0461.

For “HMGGKWKAIIIYHLKNGPKRFGELRRALISSTETVLSNQLKQLEQDGLVSRQVFGTKPPLKTVYSLTDFG”, the “soluble fraction (log2)” value was -3.3.

“HMGGKWKLRILLALENSAQDALRYGEIKNIVSGITDMMLSQSLRELTADGLIERRQYQEIPPKVEYRLS”: the “soluble fraction (log2)” value was -2.31. In the case of “HMGGKWKPIILYYININSVARYSELKRFIPSINERMLTRQLRELEEDNLIERKVYPIVPPKVEYRLTEYGK”, the “soluble fraction (log2)” value is -0.179.

For the sequence “HMGGKWSMPIIYILSKGKMRFKELERSVEGINTRMLVKELKNMEANGIVTREVFPTVPPTVEYALT”, the “soluble fraction (log2)” value was -0.968. The value for “HMGGKYKGVIIGHLIDKTLRYNELQKLISHATPKMLIQQLKELEADGIIQRKLYPVVPPKTEYSLTERG” was -0.973; that for “HMGGLAEGTKITLQNTVNVRASMGEDAEKIGTAYAGEKVTVIMSYAEGWTKVTWNDKTGYIKTSLL” was -1.5. The value for “HMGGLAHPASGEEMEHLFAHLEGELLKSGFLFPPDKAAGMMRNIRAMLTRADFTDQEVRTLRGMIVALSRG” was -1.62; that for “HMGGNDALEIAKSNPQVIEVLGEPVTKDGMGSYSVNYKNGHKTSEATIPIEGPNGTATLHVKTSGSDDAL” was 0.237.

“HMGGNKILTWKTDAATTRNQVPINERKEGLEISYKNEERNWVAEKYVGTSFSDDKWGVDYNWNQD”: the “soluble fraction (log2)” value was found to be 0.951.

As for “HMGGPAGPDFTYTGDDLTRIDYDDGSYKVFTYDAGKLSQIDFTSGGTTTRKTFVYSGDTLIRVDQTI”, the “soluble fraction (log2)” value was -0.179. As for “HMGGPEPIPAQIREGDTVYVTKFKQLGLVLKISEDTAEVQIGPLRATVAKTELSKVDATATEHR”, the figure is -0.0822; as for “HMGGQFVKVEVIAQIFGVTVRRVQQLTQEGVVKTTEIPGEGRRYELVPTIKTYIQYLSDKAY”, -4.02; as for “HMGGTFLVRILDPALNIRAQPSLTARINGVIRDKSVYTIVATSFEPKTQITWGKLKSGAGWISIGSKYVKK”, -3.4. With “HMGGVTVQNRETHVNSTVNVRSEQTTESERVALAYQGDAITQIESYENGWSKVEYKGLSGYVMTEYL”, the “soluble fraction (log2)” value was 0.275. Regarding “HMGGYLIGDVAQMVGLSRDALRFYEKKGIIRADKKENGYRYYSEDDIYRLMYILYHRKMNTSLEEIGGLMS”, the “soluble fraction (log2)” value is -0.722. For “HMGHKKLTIELQDEIIVLPKELEKYNLTVSDDKTSLIYTYKSRGEKTGITDLLRDIKDAGLRLKDLITEQ”, the “soluble fraction (log2)” value came out at 0.284. Regarding “HMGHTVHAVPEAADRQRLDVFVGNLHPTISRAYIQKLSKEDQILVNGKPEKAGFKLRTGHSVSVPDMSE”, the “soluble fraction (log2)” value turned out to be 0.00554. As for “HMGIAEAKRVIVRTLHDVLGPEADFLTEKIDVAQTAAELRVHAEKYRDMLVDMGKPKKSAAFWEAFEAALP”, the figure is -0.588; as for “HMGIAKLLTEQEYKIALLAAERRTNAMIAEEMNLTENTVKTHLKHIFDKVGIAGNAKNKRHLLADMMNSER”, -0.552; as for “HMGIDISAFSETALQVLRLQAAGYTAKEISEKLHITPRTVKYHASQNYRKLDAKNLVDAVQIAQALHI”, -1.79. As for “HMGIEQVELASRVRDAVDSLPHHLREIILLSYFQKMSYNQIAETLQVPLGTVKSRLHAAVASFAQAWTQSS”, the figure is -0.712. The value for “HMGIFAQTTKWRDIYTVKKKDTIFGIANKYGLSLPELMEANPEMKQEGYMLQKGTTLFIPFASD” was -1.32.

Regarding “HMGIGSTLTDGVRVYASDDEIVVNAPAESDVRIFNAGGAQLYAGRVADVRVAVAKGLYVVTVDGRSTKITV”, the “soluble fraction (log2)” value was -1.11.

“HMGIILDWELFEQFADKLKRKKVDFVIEPYLRFEGRRGEQSTLFIKDPSGNYLEFKAFKNIDMLFEK”: the “soluble fraction (log2)” value is -1.78. Regarding “HMGIPIEAYHESLHRHYIDLWELLDTGKETLIDAEGNEVDKIHLLNAIRFNVNGMLHELLKE”, the “soluble fraction (log2)” value was -1.91.

“HMGIQYVASGHYARMETDAQGVSRLFPPESGAPDESDRLAALSPEVLTRLILPLGDFAPEDVEEMAVD”: the “soluble fraction (log2)” value is -0.0745. Regarding “HMGIRAFDPEAFDERLKEFFSMIAPYKKLDTRSLQPHFPHHAKEVAERIRQLAEAGKIKVDGFYISEL”, the “soluble fraction (log2)” value was -0.587.

On to “HMGIRDIHITVNGESLKLSKKQNYIFVDIFDFYPFDLSILGGSKLITTINGEQAEFTSPLKDGDVVELYWK”, for which the “soluble fraction (log2)” value was -2.25. As for “HMGISNEETFLLEKMSSGRRYSRKELDNLMGFEKTKTIRLLGSLINKGLVVAEGVNRARRYIR”, the figure is -1.27; as for “HMGISQAQAMQALRKLIEEEDKHTPLSDQTLMERLKAAGIPLARRTIAKYRESLGIPSAAQRK”, -0.266; as for “HMGISVEVPDLKNMSVAEAGSLLKNSGLSYAVVDSDYVKTISPGKILDQNPGRGLRVKKGRIVYLTINSL”, -1.69.

Take “HMGITDHIYQDLKKRLENGNYPAGTRFPSESTLADEFSVNKMTMNKIVSMLAEQGYLIRGNRGAGTRVAEN”: the “soluble fraction (log2)” value was -0.399.

For the sequence “HMGITPSIEMILEYFAFKESSETEANKFFNYYSSIGWLVGGKTKMKDWKASARNWIMNQNKFQ”, the “soluble fraction (log2)” value is -4.63.

For “HMGIVAPGTLKHLHAVGNSYYPDWETKRHELVTAVTKGRTSSSKELYEAEANRLITRIEELLMTAAQSV”, the “soluble fraction (log2)” value was -0.113.

Turning to “HMGIVTMPGQGSKMRFDFDATGDLPSSTSWRGMFAYANNTKRAYVSTGTTMGGYNGWRQLIAMDEYGNYQT”, the “soluble fraction (log2)” value is 0.0821. As for “HMGKEIEAPDFKNMTLKEAKIAAKEYKIRIKKGDEVVSEEVEKGRIVSQDPDAGTTIKTGSTVTVNISKGL”, the figure is 0.131; as for “HMGKELSTVVVPDLTGLSVLEARNVLTKVGLQLTPSGAGIAFKQIPTPGTRLTLGATVTVYFVATGY”, -1.47; as for “HMGKELTVPDVVGQNYVSAQEKLIAGGFQVEVADSVYDSRYGRGVVVDQNPHKDTRVKPGRLIYVTVNA”, -0.157. The value for “HMGKEWPTPDNVEEWKKLVKKARLWPIQADQAQSEETRERNRKKWELFVAYAKRFGYRAGIGETGKPFVNN” was -1.15; that for “HMGKINEIVANNIAILRKKNRLSLEELGKLSGVSKSMLALIEKGDGNPTLGILWKIANGLGVPFDELTRRP” was -1.35; that for “HMGKLGENIKRIREGMGLSQRQFGELIGKSDSQIWSYENDRTDILASTLYKIAAVANVDFNNLMAGIIP” was -1.07. With “HMGKLYRDRYAPLEPDGARAGDRVFIISLEKEGTLERIDLPRKTATVLLGSSIRSTFPLDDLYQPRG”, the “soluble fraction (log2)” value was -0.25. The value for “HMGKMTSTLGVHIAAYRKEHGETVAQFASRSGVSVSSIRRIESGISDPSADLVWKISRHMGMTMDDLFKKM” was -3.74; that for “HMGKNISEEDMLGYFKKIDLDYDAETKEVIAPTFRHDLFRLADLAEEVARFFGYDNIPTTLPSGEAT” was 0.185. As for “HMGKPAGLIRELGNHPEDEKPVTLNNGRFGPYVKHGKVMASLTKADSPDDITFDRAIELIAIKAEKMAAKG”, the figure is 0.173; as for “HMGKPTPASQVATRWLTGNLPESLPVAGPAPSFEALARTVSTDLHPRSVLQELVRLGVAEEANGVVTLRRQ”, 0.0474. As for “HMGKPVTMELLIPYSQGSLVHRISEAGEVAKTEYQNDGTYMQVTFTPSAKDHALMQEVASYRI”, the figure is 0.653; as for “HMGKSDDSLAAEKFIQHVRKNGELSYEQAYRMVHAYFPDFRNFEGMVSGAVKSGYLILIQKSTGLFLRAKE”, -3.68. “HMGKTEMPFSTFLTEVDKGNIVSVDIRGSEISGNFRDGKGFKTYSPNYPNLVEKLSAKGVAITAGPR”: the “soluble fraction (log2)” value amounted to 0.389. The value for “HMGKTKFTEMSALELKAYAELNNNSMHWVYRMLYIGGGDVGFRKGMKELGYSGKFIWMTLERLKKS” was -1.24; that for “HMGKTTQEIEERSSTSTLTLTQTPKEIISVQGKKSDQSFFTNIQYTQNGKVIVPKQTGIYDTIKVVFTVSL” was -1.48; that for “HMGKVLIYKPNMSVSDVAIRLGISNAEIIKRLMGLGVMTSINQTIDRDTIELVAMDLGFSIEN” was -1.81.

With “HMGLAGVQSDVKVSFDGDLLVVTSDIARSFNLFAVDGRLIRSVNLIAGRNEIRGLERGFYLAEKQKIFV”, the “soluble fraction (log2)” value is -1.93. The value for “HMGLAWTVEGRTVLLGRTADRIELYNVGGGLVALARESDRISAPGVGLYVVRVVSDGQSVSQKIWIT” was -2.39; that for “HMGLDMSLEREQHRALREASQWYARLADEQVDSDAERAWRHWVAADEANQRAWQYIEAVSQRFDG” was -0.605; that for “HMGLDNEGFERLRQKITRLLSEEALPVKELVDSFASKMRQEVLETLAFLQQEGVIEEKNGKLFLK” was -0.189. The value for “HMGLIDNLTRIMEKKNISAYQLEKAGIVKQTTFTSWKKGTQPALDKIIKIMQYIEVTPNELFGY” was -2.95; that for “HMGLKWVYYTNIEPDGNKINNQKLYDILKQKFVYPVIISRDELDSMELKDLTYDSYIDVEGRYFKPYNLD” was -2.04. The value for “HMGLNPSILVKLGNANIKTIDNLADLASDELKEILEDISITSKEADEIIMRARSSWFEEDDKKEDNI” was 0.0765.

With “HMGLPAWVPQNYIDRVTAIYDYSADKDDELTFNEGSTIFVLKKNDDGWWEGVMDGVTGLFPGNYVEAT”, the “soluble fraction (log2)” value is -0.971. “HMGLQLTPVRRRVLEILLHEHRALGAYDILDKLRSEGLGSQPPVAYRALDFLVTHGFAHKIERLNAF”: the “soluble fraction (log2)” value was -0.829. As for “HMGLQRLTVSPEDAGVRIDKYLAEQLPDITRSYLQKLLKDGSVQMNGKPVKASTKTAVGAVIALTIPEP”, the figure is -0.26; as for “HMGLSAEAARMAIQDAGLSKEDFAQKLGIKKVERVVEWEAGTSKPTFVQAQKIANATNIPFGYLFLVNPPK”, 0.285. On to “HMGLTRRAQLEVADANLKRLYPGMHQSWVTAIAEYLHSSYWRYINSLEPEYAASIQRVYEQHIDAM”, for which the “soluble fraction (log2)” value is -0.0229. As for “HMGLTYEQILTDVQRFVTQNHADTLSNEGNPEEARKLLKDYILQYVQNRSYHVDGQTTEELVDSLYED”, the figure is -0.231; as for “HMGLVDSLEPLLRRVYEALPQRRSMTTERLAVAAGLDEESVKVALARLQLSAFVGVDERGWHRSL”, -2.98.

Regarding “HMGLVLIDSYNDIGSAKLITNKIRNLGLIFEENENKINVFAGPFEKNDINLKIDFLIRNGYTNAQLY”, the “soluble fraction (log2)” value was -3.08. The value for “HMGLVQQSAQKSDDAAKLMAANNLNAAQSKYQLPDEAEKDFFTFAFERGYAVEDFVDAGLVDKIMADFSA” was -0.447.
